Where a chain is given by its changes, count along the chain named.
B1: TPP-26327 (antibody, V domains shown)
VH: EVQLLESGGGLVQPGGSLRLSCAASGFTFSSYGMHWVRQAPGKGLEWVSVIRYDGSYKYYADSVKGRFTISRDNSKNTLYLQMNSLRAEDTAVYYCAAGVPDYWGQGTLVTVSS
VL: QSVLTQPPSASGTPGQRVTISCTGSSSNIGAGYDVHWYQQLPGTAPKLLIYSNNERPSGVPDRFSGSKSGTSASLAISGLRSEDEADYYCAAWDDSLNGPVFGGGTKLTVL
B2: TPP-26332 (antibody, V domains shown)
VH: B1 VH with G33K, R52S
VL: B1 VL
B3: TPP-26323 (antibody, V domains shown)
VH: B1 VH with R52S
VL: B1 VL with D95G
B4: TPP-26325 (antibody, V domains shown)
VH: B1 VH with S31W, R52S
VL: B1 VL
B5: TPP-26326 (antibody, V domains shown)
VH: B1 VH with S31Y, R52S
VL: B1 VL
B6: TPP-26328 (antibody, V domains shown)
VH: B1 VH with R52S, G99T
VL: B1 VL
B7: TPP-26329 (antibody, V domains shown)
VH: B1 VH with Y32W, R52S
VL: B1 VL
B8: TPP-26331 (antibody, V domains shown)
VH: B1 VH with M34G, R52S
VL: B1 VL
B9: TPP-26330 (antibody, V domains shown)
VH: B1 VH with S31F, R52S
VL: B1 VL
B10: TPP-26333 (antibody, V domains shown)
VH: B1 VH with M34F, R52S
VL: B1 VL
B11: TPP-26324 (antibody, V domains shown)
VH: B1 VH with R52S, A61R
VL: B1 VL
B12: TPP-26290 (antibody, V domains shown)
VH: B1 VH with R52S
VL: B1 VL with Y33M
notes: constant regions not restated
B13: TPP-26297 (antibody, V domains shown)
VH: B1 VH with R52S
VL: B1 VL with D94Q
notes: constant regions not restated
B14: TPP-26298 (antibody, V domains shown)
VH: B1 VH with R52S
VL: B1 VL with T23L
notes: constant regions not restated
B15: TPP-26296 (antibody, V domains shown)
VH: B1 VH with R52S
VL: B1 VL with D95N
notes: constant regions not restated
B16: TPP-26333 (antibody, V domains shown)
VH: B1 VH with M34F, R52S
VL: B1 VL
notes: constant regions not restated
B17: TPP-26292 (antibody, V domains shown)
VH: B1 VH with R52S
VL: B1 VL with D95E
notes: constant regions not restated
B18: TPP-26291 (antibody, V domains shown)
VH: B1 VH with R52S
VL: B1 VL with D95P
notes: constant regions not restated
B19: TPP-26294 (antibody, V domains shown)
VH: B1 VH with R52S
VL: B1 VL with G32A
notes: constant regions not restated
B20: TPP-26295 (antibody, V domains shown)
VH: B1 VH with R52S
VL: B1 VL with D95H
notes: constant regions not restated
B21: TPP-26293 (antibody, V domains shown)
VH: B1 VH with R52S
VL: B1 VL with G32W
notes: constant regions not restated

target: T1, human IL-11 (human, UniProt P20809 22-199); assay: cell-based or functional assay
T1 sequence: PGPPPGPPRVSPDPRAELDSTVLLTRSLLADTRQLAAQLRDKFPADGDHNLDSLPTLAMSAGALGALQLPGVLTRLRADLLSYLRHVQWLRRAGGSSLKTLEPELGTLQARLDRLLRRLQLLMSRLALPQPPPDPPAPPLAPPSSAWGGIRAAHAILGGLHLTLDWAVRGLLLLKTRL

| Binder | RGA Efficacy (%) | RGA IC50 |
| --- | --- | --- |
| B1 | 15% | – |
| B2 | 0.8% | – |
| B3 | 57.6% | 2 nM |
| B4 | 81.4% | 1.7 nM |
| B5 | 72% | 5.4 nM |
| B6 | 18.6% | – |
| B7 | 67.1% | 2.6 nM |
| B8 | 54.9% | 5.4 nM |
| B9 | 64.8% | 3.4 nM |
| B10 | 64.7% | 13 nM |
| B11 | 59% | 1.5 nM |

target: T2, murine IL-11 (mouse, UniProt P47873 22-199); assay: cell-based or functional assay
T2 sequence: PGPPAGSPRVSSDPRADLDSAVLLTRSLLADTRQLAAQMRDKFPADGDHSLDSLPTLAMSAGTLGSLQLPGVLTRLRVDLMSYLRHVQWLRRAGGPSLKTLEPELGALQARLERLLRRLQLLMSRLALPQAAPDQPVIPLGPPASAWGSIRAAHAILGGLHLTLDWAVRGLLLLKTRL

| Binder | RGA Efficacy (%) | RGA IC50 |
| --- | --- | --- |
| B1 | 38% | 470 nM |
| B2 | 0.9% | – |
| B3 | 95.9% | 0.92 nM |
| B4 | 93% | 1.3 nM |
| B5 | 83% | 2 nM |
| B6 | 70.8% | 64 nM |
| B7 | 95.5% | 1 nM |
| B8 | 90.9% | 1.5 nM |
| B9 | 88.2% | 1.3 nM |
| B10 | 94.1% | 1.2 nM |
| B11 | 92.4% | 1.3 nM |

target: T3, human IL-11 (human, UniProt P20809 22-199); assay: SPR, antibody captured, IL-11 as analyte
T3 construct: bought from Invigate; also called hIL-11; hIL11
T3 sequence: T1 sequence
Experimental: (§1) Antibodies were captured via anti-mouse Fc IgGs (“Mouse antibody capture kit, Order No. BR100383, Cytiva) covalently amine coupled to a Series S CM5 sensor chip (Cytiva). The amine coupling was carried out according to the manufacturer's instructions using 1-ethyl-3-(3-dimethylaminopropyl) carbodiimide hydrochloride (EDC), N-hydroxysuccinimide (NHS) and ethanolamine HCl, pH 8.5 (“Amine Coupling Kit” BR-1000-50, Cytiva.). Human IL-11 (Invigate, e.g., lot #C121021-19), and murine IL-11 (Invigate, e.g., lot #C210819-09) were used as analytes. […] Based on that experiment an IL-11 concentration range was chosen to optimally determine kinetics and affinity of anti-IL-11 antibodies in multicycle kinetics mode. The sensor surface was regenerated with glycine pH 1.7 after each antigen injection. Obtained sensorgrams were double referenced (subtraction of reference flow cell signal and buffer injection) and were fitted to a 1:1 Langmuir binding model to derive kinetic data using the Biacore T200 Evaluation software or the Biacore Insight software.
(§2) 42 hits from the IL-11 and […] screening analysis were selected, expressed by transient transfection of mammalian cells and purified as described in Example 15. Antibodies were then tested for human IL-11 and murine IL-11 binding by SPR as described in Example 16.

| Binder | Kd |
| --- | --- |
| B12 | 8.6 nM |
| B13 | 13 nM |
| B14 | 13 nM |
| B15 | 14 nM |
| B16 | 11 nM |
| B17 | 13 nM |
| B18 | 9.7 nM |
| B19 | 11 nM |
| B20 | 9.8 nM |
| B21 | 11 nM |

target: T4, murine IL-11 (mouse, UniProt P47873 22-199); assay: SPR, antibody captured, IL-11 as analyte
T4 construct: bought from Invigate; also called mIL-11; mIL11
T4 sequence: T2 sequence
Experimental: as §1, §2

| Binder | Kd |
| --- | --- |
| B12 | 0.54 nM |
| B13 | 0.89 nM |
| B14 | 0.73 nM |
| B15 | 0.71 nM |
| B17 | 0.48 nM |
| B18 | 0.94 nM |
| B19 | 0.82 nM |
| B20 | 0.65 nM |
| B21 | 0.26 nM |

target: T5, human IL2Ra (human, UniProt P01589 22-240, limits assumed); assay: IL2Ra direct binding ELISA, signal ratio to isotype control
T5 construct: bought protein, coated on the plate; also called hIL2RA; IL-2 receptor alpha
T5 sequence (looked up): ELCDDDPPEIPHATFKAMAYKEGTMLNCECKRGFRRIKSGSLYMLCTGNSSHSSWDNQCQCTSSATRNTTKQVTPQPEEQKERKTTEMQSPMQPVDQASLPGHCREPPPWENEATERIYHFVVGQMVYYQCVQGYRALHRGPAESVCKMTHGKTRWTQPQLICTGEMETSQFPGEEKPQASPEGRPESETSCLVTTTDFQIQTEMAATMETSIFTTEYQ
Experimental: IL2RA (Peprotech, Germany, #200-02RC) was coated at 1 or 0 μg/ml (buffer only control) in 30 μl coating buffer (Candor, #113500) per well on a 384 well microtiter plate (Maxisorb, Nunc, #460518) over night at 4-8° C. After two washes with 50 μl/well washing buffer (PBS+0.05% Tween, pH 7.4), the plates were incubated for two hours at room temperature with 50 μl/well SmartBlock (Candor, #113500). After blocking, the plates were washed three times with washing buffer. Then, a dilution series of the respective antibody (1E-7 [M] down to 2E-13 [M]) in PBS+0.05% Tween, 10% SmartBlock were added in 30 μl to the microtiter plate and incubated for 90 min at room temperature. After three additional washes, 30 μl anti mouse IgG HRP-conjugated antibody (Biotechne, HAF007), diluted 1:1000 in PBS+0.05% Tween (pH 7.4), were added per well and incubated for one hour. After three additional washes, a mixture of Amplex red (Invitrogen, #12222, 10 mM stock solution in DMSO) 1:1000 diluted in PBS and H2O2 (30%, Merck, #107209)) diluted 1:10000 in PBS were added as substrate with 30 μl per well and incubated for 20 min in the dark. Relative fluorescence was measured with a microtiter plate reader at 535/590 nm.
Next, the 42 antibodies were subjected to an IL2Ra binding ELISA as described in Example 20.

| Binder | hIL2RA ELISA Binding: Ratio to Isotpye |
| --- | --- |
| B1 | 11 ratio |
| B2 | 19 ratio |
| B3 | 256 ratio |
| B4 | 542 ratio |
| B5 | 516 ratio |
| B6 | 27 ratio |
| B7 | 247 ratio |
| B8 | 107 ratio |
| B9 | 264 ratio |
| B10 | 436 ratio |
| B11 | 247 ratio |
